Test results reported in patent publication US20210139548A1 (published 2021).
One block for each binder: values may come before it. *1 amine or outer side, *2 acyl side, *3 side chain or, on linkers, in order; H or OH if unused. Side-chain parts run from the residue outwards. The star is where a group is joined. C18 diacid = O=C(O)CCCCCCCCCCCCCCCCC(=O)*; γGlu = O=C(O)[C@H](CCC(=O)[*:2])N[*:1]; Isovaleryl = CC(C)CC(=O)*; AEEA = NCCOCCOCC(=O)O

Target: T1, human neuropeptide Y2 receptor (human, UniProt P49146 1-381)
T1 construct: whole, on cells; also called hNPY2 receptor; hNPY2-R
T1 sequence (looked up): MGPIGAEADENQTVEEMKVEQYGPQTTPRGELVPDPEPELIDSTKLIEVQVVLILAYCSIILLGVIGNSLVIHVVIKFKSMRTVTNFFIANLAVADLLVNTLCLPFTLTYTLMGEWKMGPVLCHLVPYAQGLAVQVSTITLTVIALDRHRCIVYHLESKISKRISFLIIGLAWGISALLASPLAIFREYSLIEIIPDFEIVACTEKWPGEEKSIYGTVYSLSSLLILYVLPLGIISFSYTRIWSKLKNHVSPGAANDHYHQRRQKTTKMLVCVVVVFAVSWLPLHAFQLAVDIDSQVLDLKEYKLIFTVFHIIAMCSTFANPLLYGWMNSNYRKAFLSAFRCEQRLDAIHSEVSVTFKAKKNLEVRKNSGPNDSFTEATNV
Assay: radioligand competition (125I-PYY(1-36)), hNPY2R membranes
Method: The filtration RLB assay was carried out in 96-well plates in a final volume of 100 μl per well. Freeze-dried test peptides were dissolved in 100% dimethyl sulfoxide (DMSO) to stock solutions of 1 mM and serial dilutions were performed in assay buffer (50 mM HEPES, 5 mM MgCl₂, 1 mM CaCl₂, pH 7.4) containing 0.2% ovalbumin. […] Next, 80 μL membranes (HTS066M, ChemiSCREEN™ Human Neuropeptide Y2 Receptor Membrane Preparation, CHEMICON) were added to each well to give a final protein concentration of 0.5 μg/well. The plates were sealed and incubated at room temperature for 2 hours in a plate shaker set at 400 rpm. The incubation was stopped by vacuum filtration onto 0.5% poly-ethylene amine (PEI) presoaked GF/C filters using a 96-well FilterMate™ harvester (Perkin Elmer) followed by four washes with 300 μl/well ice-cold wash buffer (50 mM HEPES, 500 mM NaCl, pH7.4). Filter plates were then dried for 60 min at room temperature and the bottom of the plates was sealed with backing tape UniFilter-96. Finally, 50 μl/well scintillation counter cocktail (Microscint20, Packard) was added and the radioactivity was counted in the Packard TopCount NXT scintillation counter. IC₅₀ values (the half maximal inhibitory concentration of the agonist) were calculated by nonlinear regression analysis of sigmoidal dose-response curves.

B2: Compound 13 (peptide)
peptide: Isovaleryl-APEK([AEEA-AEEA-γGlu-C18 diacid])PEEDAAPEELQQYYVSLRHYYNWLTRQRY-NH2
SMILES: CC(C)CC(=O)N[C@@H](C)C(=O)N1CCC[C@H]1C(=O)N[C@@H](CCC(=O)O)C(=O)N[C@@H](CCCCNC(=O)COCCOCCNC(=O)COCCOCCNC(=O)CC[C@H](NC(=O)CCCCCCCCCCCCCCCCC(=O)O)C(=O)O)C(=O)N1CCC[C@H]1C(=O)N[C@@H](CCC(=O)O)C(=O)N[C@@H](CCC(=O)O)C(=O)N[C@@H](CC(=O)O)C(=O)N[C@@H](C)C(=O)N[C@@H](C)C(=O)N1CCC[C@H]1C(=O)N[C@@H](CCC(=O)O)C(=O)N[C@@H](CCC(=O)O)C(=O)N[C@@H](CC(C)C)C(=O)N[C@@H](CCC(N)=O)C(=O)N[C@@H](CCC(N)=O)C(=O)N[C@@H](Cc1ccc(O)cc1)C(=O)N[C@@H](Cc1ccc(O)cc1)C(=O)N[C@H](C(=O)N[C@@H](CO)C(=O)N[C@@H](CC(C)C)C(=O)N[C@@H](CCCNC(=N)N)C(=O)N[C@@H](Cc1c[nH]cn1)C(=O)N[C@@H](Cc1ccc(O)cc1)C(=O)N[C@@H](Cc1ccc(O)cc1)C(=O)N[C@@H](CC(N)=O)C(=O)N[C@@H](Cc1c[nH]c2ccccc12)C(=O)N[C@@H](CC(C)C)C(=O)N[C@H](C(=O)N[C@@H](CCCNC(=N)N)C(=O)N[C@@H](CCC(N)=O)C(=O)N[C@@H](CCCNC(=N)N)C(=O)N[C@@H](Cc1ccc(O)cc1)C(N)=O)[C@@H](C)O)C(C)C
Ki: 1.29 nM

B3: Compound 16 (peptide)
peptide: Isovaleryl-APEK([AEEA-AEEA-γGlu-C18 diacid])PEEDASPEETQRYYVTLRHYYNWLTRQRY-NH2
SMILES: CC(C)CC(=O)N[C@@H](C)C(=O)N1CCC[C@H]1C(=O)N[C@@H](CCC(=O)O)C(=O)N[C@@H](CCCCNC(=O)COCCOCCNC(=O)COCCOCCNC(=O)CC[C@H](NC(=O)CCCCCCCCCCCCCCCCC(=O)O)C(=O)O)C(=O)N1CCC[C@H]1C(=O)N[C@@H](CCC(=O)O)C(=O)N[C@@H](CCC(=O)O)C(=O)N[C@@H](CC(=O)O)C(=O)N[C@@H](C)C(=O)N[C@@H](CO)C(=O)N1CCC[C@H]1C(=O)N[C@@H](CCC(=O)O)C(=O)N[C@@H](CCC(=O)O)C(=O)N[C@H](C(=O)N[C@@H](CCC(N)=O)C(=O)N[C@@H](CCCNC(=N)N)C(=O)N[C@@H](Cc1ccc(O)cc1)C(=O)N[C@@H](Cc1ccc(O)cc1)C(=O)N[C@H](C(=O)N[C@H](C(=O)N[C@@H](CC(C)C)C(=O)N[C@@H](CCCNC(=N)N)C(=O)N[C@@H](Cc1c[nH]cn1)C(=O)N[C@@H](Cc1ccc(O)cc1)C(=O)N[C@@H](Cc1ccc(O)cc1)C(=O)N[C@@H](CC(N)=O)C(=O)N[C@@H](Cc1c[nH]c2ccccc12)C(=O)N[C@@H](CC(C)C)C(=O)N[C@H](C(=O)N[C@@H](CCCNC(=N)N)C(=O)N[C@@H](CCC(N)=O)C(=O)N[C@@H](CCCNC(=N)N)C(=O)N[C@@H](Cc1ccc(O)cc1)C(N)=O)[C@@H](C)O)[C@@H](C)O)C(C)C)[C@@H](C)O
Ki: 3.09 nM

B6: Compound 15 (peptide)
peptide: Isovaleryl-APEK([AEEA-AEEA-γGlu-C18 diacid])PEEDASPEEIQRYEVSLRHYYNWLTRQRY-NH2
SMILES: CC[C@H](C)[C@H](NC(=O)[C@H](CCC(=O)O)NC(=O)[C@H](CCC(=O)O)NC(=O)[C@@H]1CCCN1C(=O)[C@H](CO)NC(=O)[C@H](C)NC(=O)[C@H](CC(=O)O)NC(=O)[C@H](CCC(=O)O)NC(=O)[C@H](CCC(=O)O)NC(=O)[C@@H]1CCCN1C(=O)[C@H](CCCCNC(=O)COCCOCCNC(=O)COCCOCCNC(=O)CC[C@H](NC(=O)CCCCCCCCCCCCCCCCC(=O)O)C(=O)O)NC(=O)[C@H](CCC(=O)O)NC(=O)[C@@H]1CCCN1C(=O)[C@H](C)NC(=O)CC(C)C)C(=O)N[C@@H](CCC(N)=O)C(=O)N[C@@H](CCCNC(=N)N)C(=O)N[C@@H](Cc1ccc(O)cc1)C(=O)N[C@@H](CCC(=O)O)C(=O)N[C@H](C(=O)N[C@@H](CO)C(=O)N[C@@H](CC(C)C)C(=O)N[C@@H](CCCNC(=N)N)C(=O)N[C@@H](Cc1c[nH]cn1)C(=O)N[C@@H](Cc1ccc(O)cc1)C(=O)N[C@@H](Cc1ccc(O)cc1)C(=O)N[C@@H](CC(N)=O)C(=O)N[C@@H](Cc1c[nH]c2ccccc12)C(=O)N[C@@H](CC(C)C)C(=O)N[C@H](C(=O)N[C@@H](CCCNC(=N)N)C(=O)N[C@@H](CCC(N)=O)C(=O)N[C@@H](CCCNC(=N)N)C(=O)N[C@@H](Cc1ccc(O)cc1)C(N)=O)[C@@H](C)O)C(C)C
Ki: 2.89 nM

Continued by falling Ki, values first:

Ki: 1.28 nM
B4: Compound 10 (peptide)
peptide: Isovaleryl-APEK([AEEA-AEEA-γGlu-C18 diacid])PEADASPEETQRYYVSLRHYYNWLTRQRY-NH2
SMILES: CC(C)CC(=O)N[C@@H](C)C(=O)N1CCC[C@H]1C(=O)N[C@@H](CCC(=O)O)C(=O)N[C@@H](CCCCNC(=O)COCCOCCNC(=O)COCCOCCNC(=O)CC[C@H](NC(=O)CCCCCCCCCCCCCCCCC(=O)O)C(=O)O)C(=O)N1CCC[C@H]1C(=O)N[C@@H](CCC(=O)O)C(=O)N[C@@H](C)C(=O)N[C@@H](CC(=O)O)C(=O)N[C@@H](C)C(=O)N[C@@H](CO)C(=O)N1CCC[C@H]1C(=O)N[C@@H](CCC(=O)O)C(=O)N[C@@H](CCC(=O)O)C(=O)N[C@H](C(=O)N[C@@H](CCC(N)=O)C(=O)N[C@@H](CCCNC(=N)N)C(=O)N[C@@H](Cc1ccc(O)cc1)C(=O)N[C@@H](Cc1ccc(O)cc1)C(=O)N[C@H](C(=O)N[C@@H](CO)C(=O)N[C@@H](CC(C)C)C(=O)N[C@@H](CCCNC(=N)N)C(=O)N[C@@H](Cc1c[nH]cn1)C(=O)N[C@@H](Cc1ccc(O)cc1)C(=O)N[C@@H](Cc1ccc(O)cc1)C(=O)N[C@@H](CC(N)=O)C(=O)N[C@@H](Cc1c[nH]c2ccccc12)C(=O)N[C@@H](CC(C)C)C(=O)N[C@H](C(=O)N[C@@H](CCCNC(=N)N)C(=O)N[C@@H](CCC(N)=O)C(=O)N[C@@H](CCCNC(=N)N)C(=O)N[C@@H](Cc1ccc(O)cc1)C(N)=O)[C@@H](C)O)C(C)C)[C@@H](C)O

Ki: 1.22 nM
B1: Compound 9 (peptide)
peptide: Isovaleryl-APEK([AEEA-AEEA-γGlu-C18 diacid])PEEDASPEEIQRYYVELRHYYNWLTRQRY-NH2
SMILES: CC[C@H](C)[C@H](NC(=O)[C@H](CCC(=O)O)NC(=O)[C@H](CCC(=O)O)NC(=O)[C@@H]1CCCN1C(=O)[C@H](CO)NC(=O)[C@H](C)NC(=O)[C@H](CC(=O)O)NC(=O)[C@H](CCC(=O)O)NC(=O)[C@H](CCC(=O)O)NC(=O)[C@@H]1CCCN1C(=O)[C@H](CCCCNC(=O)COCCOCCNC(=O)COCCOCCNC(=O)CC[C@H](NC(=O)CCCCCCCCCCCCCCCCC(=O)O)C(=O)O)NC(=O)[C@H](CCC(=O)O)NC(=O)[C@@H]1CCCN1C(=O)[C@H](C)NC(=O)CC(C)C)C(=O)N[C@@H](CCC(N)=O)C(=O)N[C@@H](CCCNC(=N)N)C(=O)N[C@@H](Cc1ccc(O)cc1)C(=O)N[C@@H](Cc1ccc(O)cc1)C(=O)N[C@H](C(=O)N[C@@H](CCC(=O)O)C(=O)N[C@@H](CC(C)C)C(=O)N[C@@H](CCCNC(=N)N)C(=O)N[C@@H](Cc1c[nH]cn1)C(=O)N[C@@H](Cc1ccc(O)cc1)C(=O)N[C@@H](Cc1ccc(O)cc1)C(=O)N[C@@H](CC(N)=O)C(=O)N[C@@H](Cc1c[nH]c2ccccc12)C(=O)N[C@@H](CC(C)C)C(=O)N[C@H](C(=O)N[C@@H](CCCNC(=N)N)C(=O)N[C@@H](CCC(N)=O)C(=O)N[C@@H](CCCNC(=N)N)C(=O)N[C@@H](Cc1ccc(O)cc1)C(N)=O)[C@@H](C)O)C(C)C

Ki: 0.31 nM
B5: Compound 14 (peptide)
peptide: Isovaleryl-APEK([AEEA-AEEA-γGlu-C18 diacid])PEADATPEELQRYYVSLRHYYNWLTRQRY-NH2
SMILES: CC(C)CC(=O)N[C@@H](C)C(=O)N1CCC[C@H]1C(=O)N[C@@H](CCC(=O)O)C(=O)N[C@@H](CCCCNC(=O)COCCOCCNC(=O)COCCOCCNC(=O)CC[C@H](NC(=O)CCCCCCCCCCCCCCCCC(=O)O)C(=O)O)C(=O)N1CCC[C@H]1C(=O)N[C@@H](CCC(=O)O)C(=O)N[C@@H](C)C(=O)N[C@@H](CC(=O)O)C(=O)N[C@@H](C)C(=O)N[C@H](C(=O)N1CCC[C@H]1C(=O)N[C@@H](CCC(=O)O)C(=O)N[C@@H](CCC(=O)O)C(=O)N[C@@H](CC(C)C)C(=O)N[C@@H](CCC(N)=O)C(=O)N[C@@H](CCCNC(=N)N)C(=O)N[C@@H](Cc1ccc(O)cc1)C(=O)N[C@@H](Cc1ccc(O)cc1)C(=O)N[C@H](C(=O)N[C@@H](CO)C(=O)N[C@@H](CC(C)C)C(=O)N[C@@H](CCCNC(=N)N)C(=O)N[C@@H](Cc1c[nH]cn1)C(=O)N[C@@H](Cc1ccc(O)cc1)C(=O)N[C@@H](Cc1ccc(O)cc1)C(=O)N[C@@H](CC(N)=O)C(=O)N[C@@H](Cc1c[nH]c2ccccc12)C(=O)N[C@@H](CC(C)C)C(=O)N[C@H](C(=O)N[C@@H](CCCNC(=N)N)C(=O)N[C@@H](CCC(N)=O)C(=O)N[C@@H](CCCNC(=N)N)C(=O)N[C@@H](Cc1ccc(O)cc1)C(N)=O)[C@@H](C)O)C(C)C)[C@@H](C)O
